Laboratory results: PMC9482650, “Quantitative fragmentomics allow affinity mapping of interactomes” (Nature Communications, 2022)

Key:
Assay in all cases: holdup assay
Parameters in all cases: key: below the threshold = too weak to quantify, mostly under pKd 3.1 to 4
Details in all cases: plain residues with an end cap or a label only (N-terminal biotin on a linker: ttds)
MLLT4, P55196 = target: T1, MLLT4, P55196
T1 sequence (P55196 1002-1103, limits assumed, looked up): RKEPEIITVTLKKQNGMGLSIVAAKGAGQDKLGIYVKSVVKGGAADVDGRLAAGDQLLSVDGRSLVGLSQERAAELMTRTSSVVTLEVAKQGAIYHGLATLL

MAGI1_5, Q96QZ7 = target: MAGI1_5, Q96QZ7
APBA3_2, O96018 = target: T2, APBA3_2, O96018
T2 sequence (O96018 480-570, limits assumed, looked up): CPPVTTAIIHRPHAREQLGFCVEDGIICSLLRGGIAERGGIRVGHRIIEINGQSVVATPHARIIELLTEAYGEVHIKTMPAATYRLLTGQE

MAGIX, Q9H6Y5 = target: MAGIX, Q9H6Y5
DVL1, O14640 = target: T3, DVL1, O14640
T3 sequence (O14640 246-333, limits assumed, looked up): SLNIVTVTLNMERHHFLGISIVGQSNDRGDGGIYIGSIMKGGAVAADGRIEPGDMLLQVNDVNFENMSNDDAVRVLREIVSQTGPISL

GRIP1_1, Q9Y3R0 = target: T4, GRIP1_1, Q9Y3R0
T4 sequence (Q9Y3R0 48-146, limits assumed, looked up): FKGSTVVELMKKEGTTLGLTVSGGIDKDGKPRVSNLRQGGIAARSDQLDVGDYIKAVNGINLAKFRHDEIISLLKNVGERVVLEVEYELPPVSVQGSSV

Inadl_7, Q8NI35 = target: Inadl_7, Q8NI35
MAGI1_4, Q96QZ7 = target: MAGI1_4, Q96QZ7
GIPC1, O14908 = target: T5, GIPC1, O14908
T5 sequence (O14908 128-223, limits assumed, looked up): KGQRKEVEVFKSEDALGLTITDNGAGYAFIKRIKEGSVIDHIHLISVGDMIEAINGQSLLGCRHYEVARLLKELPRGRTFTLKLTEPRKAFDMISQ

MAGI1_6, Q96QZ7 = target: MAGI1_6, Q96QZ7
DVL2, O14641 = target: DVL2, O14641
LIMK1, P53667 = target: LIMK1, P53667
USH1C_2, Q9Y6N9 = target: T6, USH1C_2, Q9Y6N9
T6 sequence (Q9Y6N9 206-303, limits assumed, looked up): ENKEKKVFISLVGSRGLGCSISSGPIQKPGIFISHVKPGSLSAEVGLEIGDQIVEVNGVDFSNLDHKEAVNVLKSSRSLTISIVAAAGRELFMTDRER

PDZD4, Q76G19 = target: T7, PDZD4, Q76G19
T7 sequence (Q76G19 125-224, limits assumed, looked up): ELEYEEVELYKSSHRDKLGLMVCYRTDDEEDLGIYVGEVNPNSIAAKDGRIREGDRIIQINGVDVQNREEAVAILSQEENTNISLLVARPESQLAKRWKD

MAGI2_1, Q86UL8 = target: T8, MAGI2_1, Q86UL8
T8 sequence (Q86UL8 12-111, limits assumed, looked up): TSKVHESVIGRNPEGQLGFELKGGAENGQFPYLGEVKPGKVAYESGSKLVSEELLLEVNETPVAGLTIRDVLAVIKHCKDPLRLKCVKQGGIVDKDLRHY

CARD14, Q9BXL6 = target: CARD14, Q9BXL6
MAGI3_4, Q5TCQ9 = target: MAGI3_4, Q5TCQ9
PDZD2_5, O15018 = target: T9, PDZD2_5, O15018
T9 sequence (O15018 2617-2716, limits assumed, looked up): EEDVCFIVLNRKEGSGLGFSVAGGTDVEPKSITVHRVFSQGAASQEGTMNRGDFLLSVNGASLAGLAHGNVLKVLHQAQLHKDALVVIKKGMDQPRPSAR

TJP3_1, O95049 = target: T10, TJP3_1, O95049
T10 sequence (O95049 6-103, limits assumed, looked up): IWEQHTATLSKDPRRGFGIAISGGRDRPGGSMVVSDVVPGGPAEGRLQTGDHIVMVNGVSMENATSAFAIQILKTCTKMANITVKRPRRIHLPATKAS

PDZD2_4, O15018 = target: T11, PDZD2_4, O15018
T11 sequence (O15018 723-823, limits assumed, looked up): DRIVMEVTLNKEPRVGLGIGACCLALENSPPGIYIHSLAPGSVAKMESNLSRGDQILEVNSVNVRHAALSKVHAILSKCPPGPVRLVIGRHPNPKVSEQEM

SHROOM2, Q13796 = target: T12, SHROOM2, Q13796
T12 sequence (Q13796 21-118, limits assumed, looked up): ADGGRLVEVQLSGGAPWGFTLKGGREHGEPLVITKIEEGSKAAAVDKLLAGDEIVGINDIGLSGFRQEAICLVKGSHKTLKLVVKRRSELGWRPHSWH

SHROOM4, Q9ULL8 = target: T13, SHROOM4, Q9ULL8
T13 sequence (Q9ULL8 5-102, limits assumed, looked up): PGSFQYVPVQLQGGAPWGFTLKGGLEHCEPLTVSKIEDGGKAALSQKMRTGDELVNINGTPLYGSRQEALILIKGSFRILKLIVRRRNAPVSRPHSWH

DLG2_1, Q15700 = target: DLG2_1, Q15700

Sequence of CARD14, Q9BXL6 (Q9BXL6 558-663): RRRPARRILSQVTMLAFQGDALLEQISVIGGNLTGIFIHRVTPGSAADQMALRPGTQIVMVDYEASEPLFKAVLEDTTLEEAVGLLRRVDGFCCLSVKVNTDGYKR
Sequence of DVL2, O14641 (O14641 260-359): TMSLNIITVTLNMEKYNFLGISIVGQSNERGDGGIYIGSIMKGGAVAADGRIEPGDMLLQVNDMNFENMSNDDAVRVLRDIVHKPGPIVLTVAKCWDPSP
Sequence of Inadl_7, Q8NI35 (Q8NI35 1219-1332): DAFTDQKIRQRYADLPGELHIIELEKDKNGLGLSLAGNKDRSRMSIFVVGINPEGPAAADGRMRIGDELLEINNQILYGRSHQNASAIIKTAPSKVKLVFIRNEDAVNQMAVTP
Sequence of MAGI1_6, Q96QZ7 (Q96QZ7 1146-1238): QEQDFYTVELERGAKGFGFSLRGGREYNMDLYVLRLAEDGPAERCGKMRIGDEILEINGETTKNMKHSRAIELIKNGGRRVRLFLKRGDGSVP
Sequence of MAGI1_5, Q96QZ7 (Q96QZ7 986-1098): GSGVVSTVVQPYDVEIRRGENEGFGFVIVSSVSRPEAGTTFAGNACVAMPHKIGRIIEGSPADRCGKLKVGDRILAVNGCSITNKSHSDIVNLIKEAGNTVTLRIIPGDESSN
Sequence of MAGI1_4, Q96QZ7 (Q96QZ7 other isoform, or with tags, fused parts or gaps): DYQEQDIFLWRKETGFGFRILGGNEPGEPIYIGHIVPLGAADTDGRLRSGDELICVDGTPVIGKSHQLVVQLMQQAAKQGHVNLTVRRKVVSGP
Sequence of MAGIX, Q9H6Y5 (Q9H6Y5 118-211): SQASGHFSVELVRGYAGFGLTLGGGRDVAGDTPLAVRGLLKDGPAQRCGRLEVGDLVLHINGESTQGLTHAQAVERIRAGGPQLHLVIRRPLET
Sequence of MAGI3_4, Q5TCQ9 (Q5TCQ9 716-815): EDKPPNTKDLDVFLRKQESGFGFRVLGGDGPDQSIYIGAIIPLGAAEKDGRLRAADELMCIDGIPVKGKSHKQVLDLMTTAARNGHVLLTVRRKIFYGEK
Sequence of LIMK1, P53667 (P53667 155-268): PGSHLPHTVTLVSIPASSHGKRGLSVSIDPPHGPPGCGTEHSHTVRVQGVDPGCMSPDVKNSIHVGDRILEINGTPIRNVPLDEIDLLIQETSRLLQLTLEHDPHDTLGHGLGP

STLTIFETAL [ABCC4, O15439]
pKd (MLLT4, P55196): below the threshold
pKd (MAGI1_5, Q96QZ7): 5.11
pKd (APBA3_2, O96018): below the threshold
pKd (MAGIX, Q9H6Y5): below the threshold
pKd (DVL1, O14640): below the threshold
pKd (GRIP1_1, Q9Y3R0): below the threshold
pKd (Inadl_7, Q8NI35): below the threshold
pKd (MAGI1_4, Q96QZ7): below the threshold
pKd (GIPC1, O14908): 4.1
pKd (MAGI1_6, Q96QZ7): 4.22
pKd (DVL2, O14641): below the threshold
pKd (LIMK1, P53667): 4.24
pKd (USH1C_2, Q9Y6N9): below the threshold
pKd (PDZD4, Q76G19): 4.08
pKd (MAGI2_1, Q86UL8): below the threshold
pKd (CARD14, Q9BXL6): below the threshold
pKd (MAGI3_4, Q5TCQ9): below the threshold
pKd (PDZD2_5, O15018): below the threshold
pKd (TJP3_1, O95049): below the threshold
pKd (PDZD2_4, O15018): below the threshold
pKd (SHROOM2, Q13796): 4.44
pKd (SHROOM4, Q9ULL8): below the threshold
pKd (DLG2_1, Q15700): 4.21
